From patent US20240301071A1

B1: mouse anti-SIRPA antibody m3F9 (antibody, mouse IgG1, V domains shown)
VH: EVKLVESGGGLVKPGGSLKLSCAASGFTFSSYAMSWVRQTPEKRLEWVATISDYGGSYTYYPDSVKGRFTISRDNAKYTLYLQMSSLRSEDTALYYCARPPYDDYYGGFAYWGQGTLVTVSA
VL: DIVLTQSPASLAVSLGQRATISCRASKSVSSSGYSYMHWYQQKPGQPPKLLIYLASNLESGVPARFSGSGSGTDFTLNIHPVEEEDAATYYCQHNRELPCTFGGGTKLEIK
B2: chimeric anti-SIRPA antibody 3F9 huIgG1 (antibody, V domains shown)
VH: B1 VH
VL: B1 VL
B3: deglycosylated m3F9 anti-SIRPA antibody (antibody, mouse IgG1, V domains shown)
VH: B1 VH
VL: B1 VL
modifications: here or on the partner: Fc glycan on Asn297 removed enzymatically with EndoS
B4: anti-SIRPA antibody 9C2 (antibody, V domains shown)
VH: EFQLQQSGAELVKPGASVKISCKASGYSLTGYNMNWVKQSRGKSLEWIGNINPHYGSSTYNQNFKDKATLTVDKSSSAAYMQFNSLTSEDSAVYYCAREGYDGVFDYWGQGTTLTVSS
VL: QIVLSQSPAILSASPGEKVTMTCRASSSVSYMHWYQQKPGSSPKPWIYVTSNLASGVPTRFSGSGSGTSYSLTISRVEAEDAATYYCQQWSSNPRTFGGGTKLEIK
B5: anti-SIRPA antibody 18D5 (antibody, from another filing, V domains shown)
VH: QVQLQQPGAELVRPGSSVKLSCKASGYTFTSYWVHWVKQRPIQGLEWIGNIDPSDSDTHYNQKFKDKASLTVDKSSSTAYMQLSSLTFEDSAVYYCVRGGTGTMAWFAYWGQGTLVTVSA
VL: DVVMTQTPLSLPVSLGDQASISCRSSQSLVHSYGNTYLYWYLQKPGQSPKLLIYRVSNRFSGVPDRFSGSGSGTDFTLKISRVEAEDLGVYFCFQGTHVPYTFGSGTKLEIKR

How the values were obtained:
[1] = biological target: SIRPA v2 (CAA71403.1) (human) (UniProt P78324); test: ELISA, plate coated with SIRP protein
[2] = biological target: SIRPB1-His iso. 3 (human) (UniProt Q5TFQ8); test: ELISA, plate coated with SIRP protein
Sequence of SIRPB1-His iso. 3 (human) (Q5TFQ8 30-371): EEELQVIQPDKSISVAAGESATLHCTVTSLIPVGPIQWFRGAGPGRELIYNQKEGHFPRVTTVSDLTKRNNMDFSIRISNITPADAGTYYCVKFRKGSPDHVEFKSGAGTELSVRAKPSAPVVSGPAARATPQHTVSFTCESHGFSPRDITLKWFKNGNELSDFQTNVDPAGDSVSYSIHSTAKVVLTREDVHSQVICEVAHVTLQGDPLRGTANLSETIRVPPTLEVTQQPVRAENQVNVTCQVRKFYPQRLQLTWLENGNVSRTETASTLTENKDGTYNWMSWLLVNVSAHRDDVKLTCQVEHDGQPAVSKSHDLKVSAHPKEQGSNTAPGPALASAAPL

SIRPB1-Fc iso. 3 (human) = SIRPB1-Fc iso. 3 (human) (UniProt Q5TFQ8); test: ELISA, plate coated with SIRP protein
Sequence of SIRPB1-Fc iso. 3 (human) (Q5TFQ8 30-371): as above

[3] = biological target: T1, human SIRPA on human macrophages (primary monocyte-derived macrophages; U937 line) (human), P78324
T1 sequence (P78324 31-504): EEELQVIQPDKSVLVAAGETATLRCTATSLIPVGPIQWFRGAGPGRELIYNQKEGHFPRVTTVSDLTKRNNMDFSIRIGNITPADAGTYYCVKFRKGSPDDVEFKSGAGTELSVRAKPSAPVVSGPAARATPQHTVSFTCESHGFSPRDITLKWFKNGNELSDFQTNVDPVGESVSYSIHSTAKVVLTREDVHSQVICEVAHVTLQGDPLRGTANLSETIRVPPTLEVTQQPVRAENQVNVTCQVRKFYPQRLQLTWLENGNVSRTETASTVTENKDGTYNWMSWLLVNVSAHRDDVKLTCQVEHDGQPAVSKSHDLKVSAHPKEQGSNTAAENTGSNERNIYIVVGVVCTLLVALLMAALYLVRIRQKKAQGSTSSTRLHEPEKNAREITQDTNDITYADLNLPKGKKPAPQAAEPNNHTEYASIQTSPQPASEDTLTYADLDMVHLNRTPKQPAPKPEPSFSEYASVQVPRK

[4] = biological target: T1, human SIRPA on human macrophages …; test: cell-based or functional assay
[5] = biological target: huSIPRA v.1 CAA71403.1 (human) (UniProt P78324); test: ELISA, plate coated with tagged SIRPA at 1 ug/mL
[6] = biological target: human SIRPA on human macrophages (primary monocyte-derived macrophages; U937 line) (human) (UniProt P78324); test: cell-based or functional assay
Sequence of human SIRPA on human macrophages (primary monocyte-derived macrophages; U937 line) (human) (P78324 31-504): as above

| Binder | EC50 [1] | EC50 [2] | EC50 (SIRPB1-Fc iso. 3 (human)) | Phagocytosis, fold increase over baseline activity [4] | SIRPA IC50 (nM), downregulation on U937 cells [4] | SIRPA IC50 (nM), downregulation on human primary macrophages [4] | SIRPA Max % DR, U937 cells [4] | SIRPA Max % DR, human primary macrophages [4] | SIRPA downregulation on primary human macrophages, Donor 413 (flow cytometry) [4] | SIRPA downregulation on primary human macrophages, Donor 414 (flow cytometry) [4] | further results |
| --- | --- | --- | --- | --- | --- | --- | --- | --- | --- | --- | --- |
| B1 | 0.353 nM | 0.435 nM | 0.319 nM | 1.51 fold | 0.105 nM | 0.00905 nM | 75% | 89% | 90% | 85% | IC50 (read off the curve), SIRPA downregulation on primary human macrophages, Dnr. 414 [3]: 0.04 nM; EC50 [5]: 0.789 nM |
| B2 | – | – | – | 1.77 fold | 0.804 nM | 0.172 nM | 68% | 90% | – | – | – |
| B3 | – | – | – | – | – | – | – | – | 70% | 75% | IC50 (read off the curve), SIRPA downregulation on primary human macrophages, Dnr. 413 [3]: 0.07 nM |
| B4 | 0.358 nM | 0.425 nM | 0.382 nM | – | – | – | – | – | – | – | – |
| B5 | – | – | – | – | – | – | – | – | – | – | EC50 (nM), phagocytosis of A375 cells by primary human macrophages [6]: 2.15 nM; Max, fold increase in phagocytosis over baseline activity [6]: 1.06 fold |
